Assays:
[1] = target: glycosylated human proBNP (HyTest, Turku, Finland; Catalog No. 8GOB2) (human); test: sandwich CMIA, capture 15C4, 86.6 pM, against human NT-proBNP
[2] = target: human pro B-type natriuretic peptide (HyTest, Turku, Finland; Catalog No. 8PRO8) (human); test: as above
[3] = target: glycosylated human proBNP (HyTest, Turku, Finland; Catalog No. 8GOB2) (human); test: sandwich CMIA, capture 15F11, analyte 288.7 pM
[4] = target: human pro B-type natriuretic peptide (HyTest, Turku, Finland; Catalog No. 8PRO8) (human); test: sandwich CMIA, capture 15F11, analyte 288.7 pM
[5] = target: glycosylated human proBNP (HyTest, Turku, Finland; Catalog No. 8GOB2) (human); test: sandwich CMIA, capture 15F11, 288.7 pM, against human NT-proBNP
[6] = target: human pro B-type natriuretic peptide (HyTest, Turku, Finland; Catalog No. 8PRO8) (human); test: as above
[7] = target: human NT-pro B-type natriuretic peptide (HyTest, Turku, Finland; Catalog No. 8NT1) (human); test: sandwich CMIA, capture 15C4, analyte 0.0 pM (blank)
[8] = target: glycosylated human proBNP (HyTest, Turku, Finland; Catalog No. 8GOB2) (human); test: as above
[9] = target: human pro B-type natriuretic peptide (HyTest, Turku, Finland; Catalog No. 8PRO8) (human); test: as above
[10] = target: human NT-pro B-type natriuretic peptide (HyTest, Turku, Finland; Catalog No. 8NT1) (human); test: sandwich CMIA, capture 15F11, analyte 86.6 pM
[11] = target: glycosylated human proBNP (HyTest, Turku, Finland; Catalog No. 8GOB2) (human); test: sandwich CMIA, capture 15F11, analyte 86.6 pM
[12] = target: human pro B-type natriuretic peptide (HyTest, Turku, Finland; Catalog No. 8PRO8) (human); test: sandwich CMIA, capture 15F11, analyte 86.6 pM

glycosylated human proBNP (HyTest, Turku, Finland; Catalog No. 8GOB2) (human), sequence (chain, as listed by the source): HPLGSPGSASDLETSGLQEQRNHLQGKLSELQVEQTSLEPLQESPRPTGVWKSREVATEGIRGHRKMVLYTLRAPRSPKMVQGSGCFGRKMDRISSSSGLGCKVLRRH
human NT-pro B-type natriuretic peptide (HyTest, Turku, Finland; Catalog No. 8NT1) (human), sequence (chain, as listed by the source): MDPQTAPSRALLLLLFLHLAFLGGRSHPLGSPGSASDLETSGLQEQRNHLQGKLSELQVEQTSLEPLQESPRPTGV

Substance: anti-human NT-proBNP/anti-human proBNP labeled monoclonal antibody 29D12 (HyTest, Turku, Finland)
- % Cross-reactivity [1]: 0.7%
- % Cross-reactivity [2]: 16%
- Analyte rlus [3]: 16400 rlus
- Analyte rlus [4]: 6140 rlus
- % Cross-reactivity [5]: 113%
- % Cross-reactivity [6]: 38.3%
- Analyte rlus [7]: 892 rlus
- Analyte rlus [8]: 892 rlus
- Analyte rlus [9]: 892 rlus
- Analyte rlus [10]: 3540 rlus
- Analyte rlus [11]: 4470 rlus
- Analyte rlus [12]: 2210 rlus

Reference: patent US20120122239A1
